US20240043568A1 (KEYMED BIOSCIENCES, published 2024)

How the values were obtained:
[1] = molecular target: T1, human CD3εγ-Fc heterodimer (human); assay: ELISA on coated human CD3εγ protein, A450 [panel Human CD3 εγ dimer]
T1 construct: also called human CD3 εγ protein; recombinant CD3 εγ protein
T1 chain 1: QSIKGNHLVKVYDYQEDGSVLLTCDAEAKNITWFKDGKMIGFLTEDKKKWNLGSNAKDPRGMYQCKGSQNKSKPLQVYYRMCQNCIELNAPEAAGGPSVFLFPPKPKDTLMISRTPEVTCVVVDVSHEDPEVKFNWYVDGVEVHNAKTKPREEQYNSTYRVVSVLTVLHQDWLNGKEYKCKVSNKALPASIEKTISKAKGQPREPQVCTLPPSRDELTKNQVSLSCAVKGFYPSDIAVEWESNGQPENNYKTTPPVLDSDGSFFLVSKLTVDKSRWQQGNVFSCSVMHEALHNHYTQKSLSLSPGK
T1 chain 2: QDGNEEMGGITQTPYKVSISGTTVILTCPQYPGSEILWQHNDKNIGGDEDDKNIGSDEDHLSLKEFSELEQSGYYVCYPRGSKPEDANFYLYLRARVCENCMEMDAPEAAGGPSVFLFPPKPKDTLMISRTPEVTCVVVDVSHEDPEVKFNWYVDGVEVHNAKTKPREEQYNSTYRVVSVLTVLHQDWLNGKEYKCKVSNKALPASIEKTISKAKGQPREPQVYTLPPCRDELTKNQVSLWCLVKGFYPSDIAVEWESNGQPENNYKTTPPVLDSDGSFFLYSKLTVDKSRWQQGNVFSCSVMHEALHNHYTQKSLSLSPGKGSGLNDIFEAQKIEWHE
Description: (§1) Human CD3 εγ protein and monkey CD3 εγ protein were coated separately overnight at 4° C. After blocking with 2% skim milk, different dilutions of CD3 antibody were added to each well and incubated for 1 hour. The secondary antibody HPR-labeled goat anti-human IgG Fc was added. After being developed by the TMB solution. The reaction was stopped with the concentrated sulfuric acid and the absorbance was read at 450 nm.

[2] = molecular target: T2, cynomolgus monkey CD3εγ-Fc heterodimer (cynomolgus monkey); assay: ELISA on coated monkey CD3εγ protein, A450 [panel Monkey CD3 εγ dimer]
T2 construct: also called monkey CD3 εγ protein
T2 chain 1: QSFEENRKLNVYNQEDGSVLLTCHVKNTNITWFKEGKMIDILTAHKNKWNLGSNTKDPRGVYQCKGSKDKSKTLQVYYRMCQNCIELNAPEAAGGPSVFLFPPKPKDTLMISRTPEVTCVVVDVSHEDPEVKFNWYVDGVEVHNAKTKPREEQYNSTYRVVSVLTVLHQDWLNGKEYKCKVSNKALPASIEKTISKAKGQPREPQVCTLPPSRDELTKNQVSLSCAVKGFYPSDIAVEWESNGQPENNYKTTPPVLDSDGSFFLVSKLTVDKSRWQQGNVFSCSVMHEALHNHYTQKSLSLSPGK
T2 chain 2: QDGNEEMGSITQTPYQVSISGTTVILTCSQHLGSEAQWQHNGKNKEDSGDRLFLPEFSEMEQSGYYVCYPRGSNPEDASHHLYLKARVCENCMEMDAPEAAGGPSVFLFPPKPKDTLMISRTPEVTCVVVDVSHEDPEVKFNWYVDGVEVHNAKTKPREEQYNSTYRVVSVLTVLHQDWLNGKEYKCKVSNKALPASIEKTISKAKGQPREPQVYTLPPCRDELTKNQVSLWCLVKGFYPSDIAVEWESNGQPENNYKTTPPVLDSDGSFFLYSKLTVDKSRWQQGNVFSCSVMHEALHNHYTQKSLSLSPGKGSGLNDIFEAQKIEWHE
Description: as §1

[3] = molecular target: T1, human CD3εγ-Fc heterodimer; assay: ELISA, coated human CD3εγ protein
Description: as §1, with “was” for “and monkey CD3 εγ protein were”, “coated” for “coated separately”, “antibodies was” for “antibody were”, “solution, the” for “solution. The”, “acid,” for “acid”, “nm (the results are shown in FIG. 12 and Table 8).” for “nm.”

human CD3 on T cells = molecular target: T3, human CD3 on T cells (human, UniProt P07766 23-207); assay: flow cytometry, Jurkat cells
T3 construct: whole, on cells; The target is the native CD3 complex on cells; The recombinant antigen used elsewhere is the εγ heterodimer; also called CD3 on Jurkat cells; CD3 on human peripheral blood CD4+ and CD8+ T cells
Description: Jurkat cells in the logarithmic growth phase were taken, blocked with 3% BSA for 30 min, and added to 96-well U-plate at 5×10⁴ cells per well. The supernatant was discarded after centrifugation. 50 μL of gradient diluted antibody was added (antibody concentration: from 30 ng/mL, 3-fold dilution for 5 gradients) per well, and incubated at 4° C. for 1 hour. […] After washing, 50 μL PBS was added per well to perform resuspending for FACS (iQue, intellicyt) assay (the results are seen in FIG. 13, and Table 10).

[4] = molecular target: T4, recombinant human GPC3 protein (human, UniProt P51654 25-563); assay: BLI (Octet), antibody on Protein A probe
T4 construct: also called human GPC3 full-length protein; recombinant GPC3 protein
Description: Using BLI technology (Octet), the antibody to be tested was captured on the Protein A probe. The binding capacity with human GPC3 protein (10 μg/ml as the initial concentration, 2-fold gradient, a total of 5 concentration points) was detected. The affinity constant KD was obtained according to the association and dissociation rates. The 49G8 humanized antibody binds to the recombinant GPC3 protein with high affinity. The affinity data is seen in Table 6.

human GPC3 on cells = molecular target: T5, human GPC3 on cells (human, UniProt P51654 25-563); assay: flow cytometry on human GPC3-CHO stably-transfected cells, MFI
T5 construct: whole, on cells; One molecule is used for both CHO-hGPC3 transfectants and GPC3+ HepG2 cells; The assay field names the cell; also called CHO-hGPC3 (clone 2B10); CHO-human GPC3

[5] = molecular target: T6, recombinant cynomolgus monkey GPC3 full-length protein (cynomolgus monkey, UniProt A0A2K5VK50 24-558); assay: SPR (Biacore T200), antibody on Protein A chip, GPC3 as analyte
Description: (§2) Humanized antibodies with higher affinity were selected and compared for binding to human and cynomolgus monkey GPC3. The humanized antibody h49G8VHv6VKv3 was captured by the Protein A chip (GE healthcare). The recombinant proteins of human and cynomolgus monkey GPC3 diluted in gradient (5 μg/ml as the initial concentration, 2-fold gradient, 5 concentration points in total) were flowed through the chip at a flow rate of 30 μL/min, with a binding time of 150 seconds and dissociation time of 600 seconds. The kinetic constant was fitted using Biacore T200 evaluation software with a Langmuir 1:1 kinetics model. The humanized antibody h49G8VHv6VKv3 binds to human and cynomolgus monkey GPC3 with high affinity. […] The affinity data is seen in Table 7.

[6] = molecular target: T4, recombinant human GPC3 protein; assay: as above
Description: as §2

[7] = molecular target: T6, recombinant cynomolgus monkey GPC3 …; assay: ELISA on coated recombinant cynomolgus monkey GPC3 protein, OD450 [panel Recombinant cynomolgus monkey GPC3 protein]
[8] = molecular target: T4, recombinant human GPC3 protein; assay: ELISA on coated recombinant human GPC3 protein, OD450 [panel Recombinant human GPC3 protein]

B1: aCD3-hVH9/VL2 (antibody, V domains shown)
VH: EVQLVESGGGLVQPGGSLRLSCAASGFTFNTYAMNWVRKAPGKGLEWVGRIRSKYNNYATYYADSVKDRFTISRDDSKNSLYLQMNSLKTEDTAVYYCVRHGNFGNSYVSWFAYWGQGTLVTVSS
VL: QAVVTQEPSLTVSPGGTVTLTCRSSTGAVTTSNYANWVQEKPGQAPRGLIGGTNKRAPWTPARFSGSLLGGKAALTLSGAQPEDEAEYYCALWYSNLWVFGGGTKLTVL
notes: Human IgG4, lambda
In the case of B1, the “EC50 (read off the curve)” value [1] is reported as roughly 0.04 ng/mL, the “EC50 (read off the curve)” value [2] is reported as roughly 0.04 ng/mL and the EC50 [3] is reported as 0.44 nM. It also gave an EC50 (human CD3 on T cells) of 25 nM.

B2: aCD3-hVH9/VL1 (antibody, V domains shown)
VH: EVQLVESGGGLVQPGGSLRLSCAASGFTFNTYAMNWVRKAPGKGLEWVGRIRSKYNNYATYYADSVKDRFTISRDDSKNSLYLQMNSLKTEDTAVYYCVRHGNFGNSYVSWFAYWGQGTLVTVSS
VL: QAVVTQEPSLTVSPGGTVTLTCRSSTGAVTTSNYANWVQQKPGQAPRGLIGGTNKRAPWTPARFSGSLLGGKAALTLSGAQPEDEAEYYCALWYSNLWVFGGGTKLTVL
notes: Human IgG4, lambda
Work on B2 yielded an EC50 [3] of 0.49 nM and an EC50 (human CD3 on T cells) of 7 nM.

B3: aCD3-hVH8/VL1 (antibody, V domains shown)
VH: EVQLVESGGGLVQPGGSLRLSCAASGFTFNTYAMNWVRKAPGKGLEWVGRIRSKYNNYATYYADSVKDRFTISRDDSKNSLYLQMNSLKTEDTAVYYCARHGNFGNSYVSWFAYWGQGTLVTVSS
VL: QAVVTQEPSLTVSPGGTVTLTCRSSTGAVTTSNYANWVQQKPGQAPRGLIGGTNKRAPWTPARFSGSLLGGKAALTLSGAQPEDEAEYYCALWYSNLWVFGGGTKLTVL
notes: Human IgG4, lambda
Binder B3 has an EC50 [3] of 0.65 nM and an EC50 (human CD3 on T cells) of 15 nM.

B4: aCD3-hVH1/VL5 (antibody, V domains shown)
VH: EVQLVESGGGLVQPGGSLRLSCAASGFTFNTYAMNWVRQAPGKGLEWVSRIRSKYNNYATYYADSVKDRFTISRDDSKNTLYLQMNSLRAEDTAVYYCVRHGNFGNSYVSWFAYWGQGTLVTVSS
VL: QAVVTQEPSLTVSPGGTVTLTCRSSTGAVTTSNYANWVQEKPGQAPRGLIGGTNKRAPWTPARFSGSLLGGKAALTITGAQAEDEAEYYCVLWYSNLWVFGGGTKLTVL
notes: Humanized CD3 antibody with human IgG4 CH1-CH3 and a lambda light chain constant region
B4 showed an EC50 [3] of 0.6 nM and an EC50 (human CD3 on T cells) of 10 nM.

B5: aCD3-hVH9/VL5 (antibody, V domains shown)
VH: EVQLVESGGGLVQPGGSLRLSCAASGFTFNTYAMNWVRKAPGKGLEWVGRIRSKYNNYATYYADSVKDRFTISRDDSKNSLYLQMNSLKTEDTAVYYCVRHGNFGNSYVSWFAYWGQGTLVTVSS
VL: QAVVTQEPSLTVSPGGTVTLTCRSSTGAVTTSNYANWVQEKPGQAPRGLIGGTNKRAPWTPARFSGSLLGGKAALTITGAQAEDEAEYYCVLWYSNLWVFGGGTKLTVL
notes: Human IgG4, lambda
For B5, the “EC50 (read off the curve)” value [1] was roughly 0.05 ng/mL, the “EC50 (read off the curve)” value [2] was roughly 0.05 ng/mL and the EC50 [3] was 0.42 nM. The EC50 (human CD3 on T cells) was 20 nM.

B6: h49G8VHv6VKv3 (antibody, V domains shown)
VH: QVQLVQSGAEVKKPGSSVKVSCKASGYTFADYEIHWVRQAPGQGLEWMGAIHPGSGGTAYAQKFQGRVTLTADESSTTAYMELSSLRSEDTAVYYCTRYYSFAYWGQGTLVTVSS
VL: DVVMTQSPLSLPVTPGEPASISCRSSQSIVHSNGNTYLEWYLQKPGQSPQLLIYKVSNRFSGVPDRFSGSGSGTDFTLKISRVEAEDVGVYFCLQVTHVPLTFGQGTKLEIK
notes: Humanized 49G8
With B6 the Kd [4] was 1.42 nM, the koff [4] was 0.000134 s⁻¹ and the kon [4] was 94800 M⁻¹ s⁻¹. The “EC50 (read off the curve)” value (human GPC3 on cells) was roughly 2 nM, the Kd [5] was 2.1 nM and the koff [5] was 0.00025 s⁻¹. It also gave a kon [5] of 119000 M⁻¹ s⁻¹, a Kd [6] of 1.39 nM and a koff [6] of 0.000351 s⁻¹. For the same binder, the kon [6] was 253000 M⁻¹ s⁻¹, the “EC50 (read off the curve)” value [7] was roughly 0.03 nM and the “EC50 (read off the curve)” value [8] was roughly 0.03 nM.

B7: h49G8VHv6VKv6 (antibody, V domains shown)
VH: QVQLVQSGAEVKKPGSSVKVSCKASGYTFADYEIHWVRQAPGQGLEWMGAIHPGSGGTAYAQKFQGRVTLTADESSTTAYMELSSLRSEDTAVYYCTRYYSFAYWGQGTLVTVSS
VL: DVVMTQSPLSLPVTPGEPASISCRSSQSIVHSNANTYLEWYLQKPGQSPQLLIYKVSNRFSGVPDRFSGSGSGTDFTLKISRVEAEDVGVYFCLQVTHVPLTFGQGTKLEIK
notes: Humanized 49G8
In the case of B7, the Kd [4] is reported as 2.38 nM, the koff [4] is reported as 0.00022 s⁻¹ and the kon [4] is reported as 92400 M⁻¹ s⁻¹. The “EC50 (read off the curve)” value (human GPC3 on cells) was roughly 2 nM, the “EC50 (read off the curve)” value [7] was roughly 0.03 nM and the “EC50 (read off the curve)” value [8] was roughly 0.03 nM.
